T1: GKAP 1, native, from rat brain extracts (rat, UniProt P97836 1-992)
T1 construct: mature
T1 sequence (looked up): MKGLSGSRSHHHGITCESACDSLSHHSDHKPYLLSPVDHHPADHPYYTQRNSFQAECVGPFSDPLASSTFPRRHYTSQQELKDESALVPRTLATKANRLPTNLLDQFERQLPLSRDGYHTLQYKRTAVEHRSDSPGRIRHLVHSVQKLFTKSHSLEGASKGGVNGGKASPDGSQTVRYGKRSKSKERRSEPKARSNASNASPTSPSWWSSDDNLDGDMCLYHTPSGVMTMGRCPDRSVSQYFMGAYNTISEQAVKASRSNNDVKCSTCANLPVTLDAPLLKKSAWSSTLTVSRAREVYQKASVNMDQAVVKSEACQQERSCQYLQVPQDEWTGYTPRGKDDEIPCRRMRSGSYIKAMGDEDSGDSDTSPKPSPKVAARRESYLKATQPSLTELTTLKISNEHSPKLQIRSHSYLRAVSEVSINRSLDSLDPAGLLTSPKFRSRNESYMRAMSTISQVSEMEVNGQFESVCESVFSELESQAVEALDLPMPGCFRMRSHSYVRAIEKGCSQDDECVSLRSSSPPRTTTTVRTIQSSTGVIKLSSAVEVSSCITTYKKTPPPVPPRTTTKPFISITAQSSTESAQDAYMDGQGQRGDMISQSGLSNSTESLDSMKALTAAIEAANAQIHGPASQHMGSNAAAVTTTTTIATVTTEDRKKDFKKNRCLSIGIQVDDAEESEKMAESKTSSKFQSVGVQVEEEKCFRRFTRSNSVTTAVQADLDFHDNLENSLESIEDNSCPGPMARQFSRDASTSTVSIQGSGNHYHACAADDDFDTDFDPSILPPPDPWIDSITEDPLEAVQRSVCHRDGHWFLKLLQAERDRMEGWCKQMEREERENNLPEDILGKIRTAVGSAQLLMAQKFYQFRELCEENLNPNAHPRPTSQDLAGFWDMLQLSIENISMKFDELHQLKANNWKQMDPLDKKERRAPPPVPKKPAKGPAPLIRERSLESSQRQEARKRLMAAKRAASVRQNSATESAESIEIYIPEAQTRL


Tests used:
[1] = target: mGluR of mouse cerebellar Purkinje cells (mouse) (UniProt P97772); test: cell-based or functional assay
Sequence of mGluR of mouse cerebellar Purkinje cells (mouse) (P97772 21-1199): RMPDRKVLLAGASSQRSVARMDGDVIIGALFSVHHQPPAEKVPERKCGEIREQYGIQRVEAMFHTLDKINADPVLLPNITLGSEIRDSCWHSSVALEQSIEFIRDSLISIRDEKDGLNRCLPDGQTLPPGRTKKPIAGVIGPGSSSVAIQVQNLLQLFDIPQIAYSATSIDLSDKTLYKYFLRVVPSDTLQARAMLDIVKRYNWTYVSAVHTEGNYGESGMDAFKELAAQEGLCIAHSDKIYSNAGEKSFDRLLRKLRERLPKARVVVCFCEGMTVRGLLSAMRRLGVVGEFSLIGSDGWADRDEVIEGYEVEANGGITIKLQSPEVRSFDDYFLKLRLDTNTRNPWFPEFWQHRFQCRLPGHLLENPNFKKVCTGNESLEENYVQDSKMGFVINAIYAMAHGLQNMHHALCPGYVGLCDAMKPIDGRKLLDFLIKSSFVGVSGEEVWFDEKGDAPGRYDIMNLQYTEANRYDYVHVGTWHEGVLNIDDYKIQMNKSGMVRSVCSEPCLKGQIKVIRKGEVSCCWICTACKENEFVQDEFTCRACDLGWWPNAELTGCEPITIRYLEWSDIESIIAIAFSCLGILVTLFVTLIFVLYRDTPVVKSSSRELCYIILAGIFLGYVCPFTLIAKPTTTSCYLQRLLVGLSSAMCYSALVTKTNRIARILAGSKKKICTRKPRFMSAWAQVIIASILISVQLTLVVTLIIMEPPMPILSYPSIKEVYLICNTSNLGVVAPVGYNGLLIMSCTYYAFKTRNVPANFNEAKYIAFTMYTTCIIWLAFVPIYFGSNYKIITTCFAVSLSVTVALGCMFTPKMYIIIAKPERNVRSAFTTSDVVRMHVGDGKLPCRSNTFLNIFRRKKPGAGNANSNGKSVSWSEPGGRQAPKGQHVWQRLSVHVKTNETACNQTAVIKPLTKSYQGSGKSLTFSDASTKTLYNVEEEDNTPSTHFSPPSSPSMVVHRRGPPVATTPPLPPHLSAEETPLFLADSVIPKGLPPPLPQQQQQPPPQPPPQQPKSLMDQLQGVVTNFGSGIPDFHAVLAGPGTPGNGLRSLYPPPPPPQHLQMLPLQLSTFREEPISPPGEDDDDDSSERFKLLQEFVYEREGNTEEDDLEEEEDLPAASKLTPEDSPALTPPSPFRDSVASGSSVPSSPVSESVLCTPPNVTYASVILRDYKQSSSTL

[2] = target: T1, GKAP 1, native, from rat brain extracts; test: GST pull-down from rat brain extracts

Molecule | mGluR-evoked Ca+2 response, amplitude [1] [nM] | mGluR-evoked Ca+2 response, latency [1] [s] | binding result [2]
IEG form of Homer 1: 186 amino acid amino-terminal fragment of Homer 1b (pRK5 Homer 1 IEG) (from UniProt Q9Z2Y3 1-198) | 170 | 10.5 | –
GST-GKAP(carboxy-terminal): carboxy-terminal 76 amino acids of GKAP1a fused to GST (other, UniProt P97836-5 591-666, looked up, domain: carboxy-terminal 76 amino acids; not shown: glutathione-S-transferase, fusion partner) MDPLDKKERRAPPPVPKKPAKGPAPLIRERSLESSQRQEARKRLMAAKRAASVRQNSATESAESIEIYIPEAQTRL | – | – | no binding

From patent US20030170807A1 (Johns Hopkins, published 2003)
